Earlier results as cited in article PMC10003451, “Phosphorylated Peptide Derived from the Myosin Phosphatase Target Subunit Is a Novel Inhibitor of Protein Phosphatase-1” (International Journal of Molecular Sciences, 2023).

B1: GST-MYPT1^654−880: GST-MYPT1^654−880 fragment phosphorylated at Thr696 (protein, UniProt O14974 654-880, looked up, fragment)
chain: GTVSSTTEVRERRRSYLTPVRDEESESQRKARSRQARQSRRSTQGVTLTDLQEAEKTIGRSRSTRTREQENEEKEKEEKEKQDKEKQEEKKESETSREDEYKQKYSRTYDETYQRYRPVSTSSSTTPSSSLSTMSSSLYASSQLNRPNSLVGITSAYSRGITKENEREGEKREEEKEGEDKSQPKSIRERRRPREKRRSTGVSFWTQDSDENEQEQQSDTEEGSNKK
modifications: GST fusion; phosphorylated Thr696
notes: GST-MYPT1^654−880 fragment phosphorylated at Thr696
B2: His-tagged MYPT1^514−963: C-terminal fragment of a recombinant His-tagged MYPT1 phosphorylated at Thr654 (protein, UniProt O14974 514-963, looked up, fragment)
chain: KENRDSSSLRTSSSYTRRKWEDDLKKNSSVNEGSTYHKSCSFGRRQDDLISSSVPSTTSTPTVTSAAGLQKSLLSSTSTTTKITTGSSSAGTQSSTSNRLWAEDSTEKEKDSVPTAVTIPVAPTVVNAAASTTTLTTTTAGTVSSTTEVRERRRSYLTPVRDEESESQRKARSRQARQSRRSTQGVTLTDLQEAEKTIGRSRSTRTREQENEEKEKEEKEKQDKEKQEEKKESETSREDEYKQKYSRTYDETYQRYRPVSTSSSTTPSSSLSTMSSSLYASSQLNRPNSLVGITSAYSRGITKENEREGEKREEEKEGEDKSQPKSIRERRRPREKRRSTGVSFWTQDSDENEQEQQSDTEEGSNKKETQTDSISRYETSSTSAGDRYDSLLGRSGSYSYLEERKPYSSRLEKDDSTDFKKLYEQILAENEKLKAQLHDTNMELTDLKLQ
modifications: His tag; phosphorylated Thr654

Key:
[1] = target: T1, PP1c (Homo sapiens, UniProt P62136); design: method as in 2 sources, ref 30 = [30]; PMID 12030846; doi:10.1042/bj20020401; 30. Murányi A. MacDonald J.A. Deng J.T. Wilson D.P. Haystead T.A. Walsh M.P. Erdődi F. Kiss E. Wu Y. Hartshorne D.J. Phosphorylation of the myosin phosphatase target subunit by integrin-linked kinase ||| ref 31 = [31]; PMID 19531490; doi:10.1074/jbc.M109.019729; 31. Khromov A. Choudhury N. Stevenson A.S. Somlyo A.V. Eto M. Phosphorylation-dependent autoinhibition of myosin light chain phosphatase accounts for Ca 2+ sensitization force of smooth muscle contrac
T1 construct: made in house; host or cells: E. coli

[2] = tested on: MP holoenzyme; design: method as in PMID 19531490; settings: phosphorylated at Thr696

T1 sequence (P62136 whole entry): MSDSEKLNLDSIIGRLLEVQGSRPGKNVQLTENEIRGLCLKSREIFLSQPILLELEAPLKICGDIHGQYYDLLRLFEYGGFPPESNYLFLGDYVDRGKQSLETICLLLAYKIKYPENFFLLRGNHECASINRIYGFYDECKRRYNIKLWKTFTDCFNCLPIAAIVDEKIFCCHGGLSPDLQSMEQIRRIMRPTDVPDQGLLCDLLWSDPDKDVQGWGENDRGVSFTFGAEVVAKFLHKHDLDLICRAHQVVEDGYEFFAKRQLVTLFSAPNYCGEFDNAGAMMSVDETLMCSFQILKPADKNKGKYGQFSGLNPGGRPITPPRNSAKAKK

Molecule | effect on PP1c (literature) ([1]; phosphorylated at Thr696) | inhibition of MP holoenzyme (literature) [2] | IC50 ([1]; phosphorylated at Thr654 (corresponding to Thr696 in the longer MYPT1 isoform), read-out: IC50, inhibition of PP1c (literature)) [nM]
B1 | without effect on PP1c | inhibited MP holoenzyme potently in nanomolar concentrations | 
B2 |  |  | ~100
